Experimental data: US20150018665

Assays:
[1] = test system: TEV protease sensor, StrepII-GFP-(linker)-(protease site)-CGRP-Gly fusion with GGSG linker and ENLYFQG protease site, uncleaved
[2] = test system: Caspase-3 sensor, StrepII-GFP-(linker)-(protease site)-CGRP-Gly fusion with GGSG linker and DEVD protease site, uncleaved
[3] = test system: Enterokinase sensor, StrepII-GFP-(linker)-(protease site)-CGRP-Gly fusion with GGSG linker and DDDDK protease site, uncleaved

Tobacco Etch Virus (TEV) protease
proteolytic cleavage of the sensor, read by CGRP receptor activation [1]: after being cleaved by their respective protease

caspase-3
proteolytic cleavage of the sensor (MALDI spectrum) [2]: MALDI spectrum showing cleavage of caspase sensor | proteolytic cleavage of the sensor, read by CGRP receptor activation [2]: after being cleaved by their respective protease

enterokinase
proteolytic cleavage of the sensor, read by CGRP receptor activation [3]: after being cleaved by their respective protease
